The results in this text go back to US10704030B2, “P450-BM3 variants with improved activity” (Codexis, Inc., priority 2015, dated 2020).

What all share (format): biochemical
Data set [1] in a line: Validation of generalist properties: oxidation of loratadine by lyophilized P450-BM3 variant, UPLC-MS. The conditions noted are these: [Loratadine] = 1 mM; for TON: TON = [substrate]*% conversion/[P450]; for FIOPC (D06): fold improvement over parent MCYP-P1.2-D06. The essentials: (§1)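 Lyophilized lysate of E. coli-expressed P450-BM3 variant (stock standardized to 12 μM heme) was incubated 24 h at 30 °C with 1 or 2 mM substrate, 1.0 mM NADP+, 25 mM glucose, 0.5 mg/mL glucose dehydrogenase and 5% DMSO in 100 mM potassium phosphate. Acetonitrile-quenched samples were analyzed by UPLC-MS (positive ESI).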

Data set [2] can be described thus: Validation of generalist properties: oxidation of diclofenac by lyophilized P450-BM3 variant, UPLC-MS. The conditions noted are these: [Diclofenac] = 1 mM; for TON: TON = [substrate]*% conversion/[P450]; for FIOPC (D06): fold improvement over parent MCYP-P1.2-D06. In short, it runs like this: as §1
Data set [3] in a line: Validation of generalist properties: oxidation of gefitinib by lyophilized P450-BM3 variant, UPLC-MS. The conditions noted are these: [Gefitinib] = 1 mM; for TON: TON = [substrate]*% conversion/[P450]; for FIOPC (D06): fold improvement over parent MCYP-P1.2-D06. The essentials:
as §1

The nature of data set [4]: Validation of generalist properties: oxidation of imatinib by lyophilized P450-BM3 variant, UPLC-MS. As to conditions: [Imatinib] = 1 mM; for TON: TON = [substrate]*% conversion/[P450]; for FIOPC (D06): fold improvement over parent MCYP-P1.2-D06. In short, it runs like this: as §1

B1: Variant 12: P450-BM3 variant of SEQ ID NO: 12: K32R; C48S; Y52F; I95P; Q111R; G115R; D232H; M491A; T577A; A627S; D722S (protein)
chain: MTIKEMPQPKTFGELKNLPLLNTDKPVQALMRIADELGEIFKFEAPGSVTRFLSSQRLIKEACDESRFDKNLSQALKFSRDFAGDGLFTSWTHEPNWKKAHNILLPSFSQRAMKRYHAMMVDIAVQLVQKWERLNADEHIEVSEDMTRLTLDTIGLCGFNYRFNSFYRDQPHPFIISMVRALDEVMNKLQRANPDDPAYDENKRQCQEDIKVMNDLVDKIIADRKARGEQSHDLLTQMLNGKDPETGEPLDDGNISYQIITFLIAGHETTSGLLSFALYFLVKNPHVLQKVAEEAARVLVDPVPSYKQVKQLKYVGMVLNEALRLWPTAPAFSLYAKEDTVLGGEYPLEKGDEVMVLIPQLHRDKTIWGDDVEEFRPERFENPSAIPQHAFKPFGNGQRACIGQQFALHEATLVLGMMLKHFDFEDHTNYELDIKETLTLKPEGFVVKAKSKKIPLGGIPSPSTEQSAKKVRKKAENAHNTPLLVLYGSNAGTAEGTARDLADIAMSKGFAPQVATLDSHAGNLPREGAVLIVTASYNGHPPDNAKQFVDWLDQASADEVKGVRYSVFGCGDKNWAATYQKVPAFIDETLAAKGAENIADRGEADASDDFEGTYEEWREHMWSDVASYFNLDIENSEDNKSTLSLQFVDSAADMPLAKMHGAFSTNVVASKELQQPGSARSTRHLEIELPKEASYQEGDHLGVIPRNYEGIVNRVTARFGLSASQQIRLEAEEEKLAHLPLAKTVSVEELLQYVELQDPVTRTQLRAMAAKTVCPPHKVELEALLEKQAYKEQVLAKRLTMLELLEKYPACEMKFSEFIALLPSIRPRYYSISSSPRVDEKQASITVSVVSGEAWSGYGEYKGIASNYLAELQEGDTITCFISTPQSEFTLPKDPETPLIMVGPGTGVAPFRGFVQARKQLKEQGQSLGEAHLYFGCRSPHEDYLYQEELENAQSEGIITLHTAFSRMPNQPKTYVQHVMEQDGKKLIELLDQGAHFYICGDGSQMAPAVEATLMKSYADVHQVSEADARLWLQQLEEKGRYAKDVWAG
modifications: P450_BM3
notes: C48S; Y52F; I95P; Q111R; G115R; D232H; M491A; T577A; A627S; D722S
For B1, the “% Conv.” value was “++ (5.01-10.00)” in data set [1], “+++ (10.01-15.00)” in data set [2], “+ (0-5.00)” in data set [3] and “++++ (15.01-20.00)” in data set [4]. Further, the TON entry in data set [1] was “‡‡ (1001-5000)”; in data set [2], “‡‡‡ (5001-10000)”; in data set [3], “‡ (0-1000)”; in data set [4], “‡‡‡‡ (10000-50000)”. Besides, the “FIOPC (D06)” value in data set [1] is given as “* (0.0-3.0)”; in data set [2] it was “** (3.01-5.0)”; in data set [3], “* (0.0-3.0)”; in data set [4], “*** (5.01-10.0)”.

B2: Variant 13: P450-BM3 variant of SEQ ID NO: 12: K32R; C48S; Y52F; I95P; G115R; D232H; M491A; N574T; T577A; E619D; A627S; D722S (protein)
chain: MTIKEMPQPKTFGELKNLPLLNTDKPVQALMRIADELGEIFKFEAPGSVTRFLSSQRLIKEACDESRFDKNLSQALKFSRDFAGDGLFTSWTHEPNWKKAHNILLPSFSQQAMKRYHAMMVDIAVQLVQKWERLNADEHIEVSEDMTRLTLDTIGLCGFNYRFNSFYRDQPHPFIISMVRALDEVMNKLQRANPDDPAYDENKRQCQEDIKVMNDLVDKIIADRKARGEQSHDLLTQMLNGKDPETGEPLDDGNISYQIITFLIAGHETTSGLLSFALYFLVKNPHVLQKVAEEAARVLVDPVPSYKQVKQLKYVGMVLNEALRLWPTAPAFSLYAKEDTVLGGEYPLEKGDEVMVLIPQLHRDKTIWGDDVEEFRPERFENPSAIPQHAFKPFGNGQRACIGQQFALHEATLVLGMMLKHFDFEDHTNYELDIKETLTLKPEGFVVKAKSKKIPLGGIPSPSTEQSAKKVRKKAENAHNTPLLVLYGSNAGTAEGTARDLADIAMSKGFAPQVATLDSHAGNLPREGAVLIVTASYNGHPPDNAKQFVDWLDQASADEVKGVRYSVFGCGDKTWAATYQKVPAFIDETLAAKGAENIADRGEADASDDFEGTYEEWRDHMWSDVASYFNLDIENSEDNKSTLSLQFVDSAADMPLAKMHGAFSTNVVASKELQQPGSARSTRHLEIELPKEASYQEGDHLGVIPRNYEGIVNRVTARFGLSASQQIRLEAEEEKLAHLPLAKTVSVEELLQYVELQDPVTRTQLRAMAAKTVCPPHKVELEALLEKQAYKEQVLAKRLTMLELLEKYPACEMKFSEFIALLPSIRPRYYSISSSPRVDEKQASITVSVVSGEAWSGYGEYKGIASNYLAELQEGDTITCFISTPQSEFTLPKDPETPLIMVGPGTGVAPFRGFVQARKQLKEQGQSLGEAHLYFGCRSPHEDYLYQEELENAQSEGIITLHTAFSRMPNQPKTYVQHVMEQDGKKLIELLDQGAHFYICGDGSQMAPAVEATLMKSYADVHQVSEADARLWLQQLEEKGRYAKDVWAG
modifications: P450_BM3
notes: C48S; Y52F; I95P; G115R; D232H; M491A; N574T; T577A; E619D; A627S; D722S
Turning to B2, the “% Conv.” value in data set [1] is on record as “+ (0-5.00)”; in data set [2] it was “++++ (15.01-20.00)”; in data set [3], “+ (0-5.00)”; in data set [4], “++++ (15.01-20.00)”. Also, the TON result is “‡‡ (1001-5000)” in data set [1], “‡‡‡ (5001-10000)” in data set [2], “‡‡ (1001-5000)” in data set [3] and “‡‡‡‡ (10000-50000)” in data set [4]. Also, the “FIOPC (D06)” value is given as “* (0.0-3.0)” in data set [1], “*** (5.01-10.0)” in data set [2], “**** (10.01-15.00)” in data set [3] and “*** (5.01-10.0)” in data set [4].

B3: SEQ ID NO: 14: P450-BM3 parental backbone from the commercially available MCYP panel (MCYP-0343; Codexis) (protein)
chain: MTIKEMPQPKTFGELKNLPLLNTDKPVQALMKIADELGEIFKFEAPGLVTRYLSSQRLIKEACDESRFDKNLSQALKFARDFAGDGLFTSWTHEKNWKKAHNILLPSFSQQAMKGYHAMMVDIAVQLVQKWERLNADEHIEVPEDMTRLTLDTIGLCGFNYRFNSFYRDQPHPFITSMVRALDEAMNKQQRANPDDPAYDENKRQFQEDIKVMNDLVDKIIADRKASGEQSDDLLTHMLNGKDPETGEPLDDENIRYQIITFLIAGHETTSGLLSFALYFLVKNPHVLQKAAEEAARVLVDPVPSYKQVKQLKYVGMVLNEALRLWPTAPAFSLYAKEDTVLGGEYPLEKGDELMVLIPQLHRDKTIWGDDVEEFRPERFENPSAIPQHAFKPFGNGQRACIGQQFALHEATLVLGMMLKHFDFEDHTNYELDIKETLTLKPEGFVVKAKSKKIPLGGIPSPSTEQSAKKVRKKAENAHNTPLLVLYGSNMGTAEGTARDLADIAMSKGFAPQVATLDSHAGNLPREGAVLIVTASYNGHPPDNAKQFVDWLDQASADEVKGVRYSVFGCGDKNWATTYQKVPAFIDETLAAKGAENIADRGEADASDDFEGTYEEWREHMWSDVAAYFNLDIENSEDNKSTLSLQFVDSAADMPLAKMHGAFSTNVVASKELQQPGSARSTRHLEIELPKEASYQEGDHLGVIPRNYEGIVNRVTARFGLDASQQIRLEAEEEKLAHLPLAKTVSVEELLQYVELQDPVTRTQLRAMAAKTVCPPHKVELEALLEKQAYKEQVLAKRLTMLELLEKYPACEMKFSEFIALLPSIRPRYYSISSSPRVDEKQASITVSVVSGEAWSGYGEYKGIASNYLAELQEGDTITCFISTPQSEFTLPKDPETPLIMVGPGTGVAPFRGFVQARKQLKEQGQSLGEAHLYFGCRSPHEDYLYQEELENAQSEGIITLHTAFSRMPNQPKTYVQHVMEQDGKKLIELLDQGAHFYICGDGSQMAPAVEATLMKSYADVHQVSEADARLWLQQLEEKGRYAKDVWAG
modifications: P450_BM3
On to B3, for which the “% Conv.” value in data set [1], in data set [2], in data set [3] and in data set [4] was “+ (0-5.00)” throughout. Moreover, the TON entry in data set [1] was “‡‡ (1001-5000)”; in data set [2], “‡ (0-1000)”; in data set [3], “‡ (0-1000)”; in data set [4], “‡‡ (1001-5000)”.

B4: SEQ ID NO: 12: P450-BM3 parental backbone from the commercially available MCYP panel (MCYP-0343; Codexis) (protein)
chain: MTIKEMPQPKTFGELKNLPLLNTDKPVQALMKIADELGEIFKFEAPGCVTRYLSSQRLIKEACDESRFDKNLSQALKFSRDFAGDGLFTSWTHEINWKKAHNILLPSFSQQAMKGYHAMMVDIAVQLVQKWERLNADEHIEVSEDMTRLTLDTIGLCGFNYRFNSFYRDQPHPFIISMVRALDEVMNKLQRANPDDPAYDENKRQCQEDIKVMNDLVDKIIADRKARGEQSDDLLTQMLNGKDPETGEPLDDGNISYQIITFLIAGHETTSGLLSFALYFLVKNPHVLQKVAEEAARVLVDPVPSYKQVKQLKYVGMVLNEALRLWPTAPAFSLYAKEDTVLGGEYPLEKGDEVMVLIPQLHRDKTIWGDDVEEFRPERFENPSAIPQHAFKPFGNGQRACIGQQFALHEATLVLGMMLKHFDFEDHTNYELDIKETLTLKPEGFVVKAKSKKIPLGGIPSPSTEQSAKKVRKKAENAHNTPLLVLYGSNMGTAEGTARDLADIAMSKGFAPQVATLDSHAGNLPREGAVLIVTASYNGHPPDNAKQFVDWLDQASADEVKGVRYSVFGCGDKNWATTYQKVPAFIDETLAAKGAENIADRGEADASDDFEGTYEEWREHMWSDVAAYFNLDIENSEDNKSTLSLQFVDSAADMPLAKMHGAFSTNVVASKELQQPGSARSTRHLEIELPKEASYQEGDHLGVIPRNYEGIVNRVTARFGLDASQQIRLEAEEEKLAHLPLAKTVSVEELLQYVELQDPVTRTQLRAMAAKTVCPPHKVELEALLEKQAYKEQVLAKRLTMLELLEKYPACEMKFSEFIALLPSIRPRYYSISSSPRVDEKQASITVSVVSGEAWSGYGEYKGIASNYLAELQEGDTITCFISTPQSEFTLPKDPETPLIMVGPGTGVAPFRGFVQARKQLKEQGQSLGEAHLYFGCRSPHEDYLYQEELENAQSEGIITLHTAFSRMPNQPKTYVQHVMEQDGKKLIELLDQGAHFYICGDGSQMAPAVEATLMKSYADVHQVSEADARLWLQQLEEKGRYAKDVWAG
modifications: P450_BM3
Turning to B4, the “% Conv.” value in data set [1] is “+ (0-5.00)”; in data set [2] it was “+ (0-5.00)”; in data set [3] it was “+ (0-5.00)”; in data set [4], “++ (5.01-10.00)”. For the same molecule, the TON entry in data set [1] is given as “‡‡ (1001-5000)”; in data set [2], “‡‡ (1001-5000)”; in data set [3], “‡ (0-1000)”; in data set [4] it was “‡‡ (1001-5000)”.
